# This sample holds only a part of the variants without activity.
# B1: TPR 5TU (parent)
# chain: GGAUCUUCUCGAUCUAACAAAAAAGACAAAUCUGCCACAAAGCUUGAGAGCAUCUUCGGAUGCAGAGGCGGCAGCCUUCGGUGGCGCGAUAGCGCCAACGUUCUCAACUAUGACACGCAAAACGCGUGCUCCGUUGAAUGGAGUUUAUCAUG
# Variants of: B1
# Assay: polymerase ribozyme fitness, log enrichment relative to wild type (log ratio); higher = more active; in vitro selection for triplet polymerase activity
# Procedure, shortened: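 A single round of triplicate in vitro selection, including frozen incubation at −7 °C, was applied to PCR-built, transcribed mutant libraries of each subunit of a heterodimeric triplet polymerase ribozyme. Illumina sequencing of input and output libraries retained genotypes with ≥10 input reads and ≥1 read per output. Fitness is the base-2 logarithm of genotype enrichment divided by wild-type enrichment, from inverse-variance-weighted replicate averages.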
row,Variant,polymerase ribozyme fitness (log ratio)
1,C35A A60C A97G U145G,≤ -4.2
2,C32U G58C C63A,-3.84
3,A30U U101G,-3.89
4,U33G G65A G70C C108U,≤ -4.2
5,U31G G81U C87G U104G G128C,≤ -4.2
6,C32U G50U C95A C131U G143A U151C,≤ -4.2
7,U33G G80C C85G,≤ -4.2
8,C32A C54U C93A A110G A137G G140C,-4.17
9,G34A G84A C95G,-0.00509
10,G34A U55A G70U G80U G86A,≤ -4.2
11,A30G C85U,-3.06
12,C32G A49C U53A C85U G86U C99A A138G A150G,-4.03
13,U31G C54U U109G A137G,-2.71
14,U31G C85U,0.998
15,U31A C43U U44G G62A G71A U90G A91C,≤ -4.2
16,U31G A40U G48A G84A C87U A119U,≤ -4.2
17,U31A A106G,0.863
18,G34A G71C C105G G143U,≤ -4.2
19,U31C G94C C105A,-1.61
20,U33G C35U G59U C75G G128A U139A,-4.05
21,G34C A52G G84A U109A C125U,≤ -4.2

row,Variant,polymerase ribozyme fitness (log ratio)
1,C32U G59C A89C G94C,-3.87
2,C32A G65A G88A C118U A120C A142G U144C,≤ -4.2
3,C32G A49C A52C G143U,≤ -4.2
4,C32G G46A A52G U53A A60U C87A A89U A142U,≤ -4.2
5,C32A A37C C95U,≤ -4.2
6,U31A C75G C95U C118U,-3.7
7,U33A U44G A107G A122G C132U,≤ -4.2
8,U31G U56A,0.083
9,G34A A39U C96A U135C G140C,≤ -4.2
10,A30G A49C G88U A110G,≤ -4.2
11,A30U G86U,≤ -4.2
12,G34C G58A G68C G84A U90G A120G C125G,≤ -4.2
13,A30G A52C U53C C93A G100C C132A,≤ -4.2
14,U33G G50U U90G C96G,-3.98
15,A30G C95G,-3.11
16,C32A C38U U55A G94A G126C,-3.92
17,U31C U45A G70C G92C,≤ -4.2
18,A30G C85U U134C,-3.93
19,U33G C38A C93U A113U G136A A138U,≤ -4.2
20,C35A A41C C57U C85G,≤ -4.2
21,U33G U53G C54U G58A C69U C85A C114U U151A,≤ -4.2

row,Variant,polymerase ribozyme fitness (log ratio)
1,A30U C35U G84A,-4.19
2,A30G G74U C93A U102C U127G C129G U144G,≤ -4.2
3,U31G G50A C51U G62C G68U C95U U101G A106C,≤ -4.2
4,A30U A52G G67U C132U,≤ -4.2
5,C32U A49C A52G G58U G62C C131G,≤ -4.2
6,G34C A39G A49C A97U,≤ -4.2
7,G34A U101A,-2.82
8,U31G G59A,0.625
9,U31G A37C U61A G126C U145C,≤ -4.2
10,U31C U55A A97G,1.27
11,U31G C54G,-1.02
12,C32G A39C A41C A52U G94C C116G,≤ -4.2
13,U33A A49C G50C C76A C85G A138U U151C,≤ -4.2
14,A30U A73U A98U U135G,≤ -4.2
15,U31G C35U C57U G117A,-0.0701
16,A30G C76A C95A,≤ -4.2
17,U31C G92C G126U,0.158
18,A30U G88C G92U C95A,≤ -4.2
19,A30U C69G C79A C87G G126A G140C,≤ -4.2
20,G34C U45A G50C A52C U53A C76A G81A G92A C105G,≤ -4.2
21,C32G A91C G117U A137U,≤ -4.2

row,Variant,polymerase ribozyme fitness (log ratio)
1,A30U G70A,≤ -4.2
2,A30C U111G C129U G136U,≤ -4.2
3,U31C C93U C131U,1.12
4,U31C U56G C123A G136C,-2.61
5,U31C C32A G80C G81A A115C C118G G133A,≤ -4.2
6,A30U C36A C85U G92A C96A,≤ -4.2
7,U33G G68A C87G C108U A120C G136U,≤ -4.2
8,A30G G46C G50U C57U C118G,≤ -4.2
9,A30U G46U U55G C79A U101G C108G C116U A119G G136U,≤ -4.2
10,U33G A52G U130G C131U G133U U146A,≤ -4.2
11,U31G A91U,-4.03
12,C32G U82G,≤ -4.2
13,G34C C51G C57U G83C,≤ -4.2
14,C35A A60U U77A U82A G83C A97U G126A,-3.93
15,A30U G58A C87U U90G U101A A110C G112A G126U,≤ -4.2
16,C32G U55A C79A C116G C149A,≤ -4.2
17,U31A C93A U127C,-3.92
18,U31A C95G C125A,-1.34
19,A30U U45A G94U C131G,≤ -4.2
20,A30G C35G G59U A113C C131A,≤ -4.2

# Source: the RNAGym collection of RNA variant scans (doi:10.1073/pnas.2313332121)
